Experimental data as given in PMC3349548, “UBXN7 docks on neddylated cullin complexes using its UIM motif and causes HIF1α accumulation” (BMC Biology, 2012).

Experiments:
Details in all cases: both partners purified
ubiquitin-agarose = biological target: T1, ubiquitin-agarose (UniProt P0CG47 1-76); experiment: pull-down; 25 μg recombinant UBXN7 variant incubated for one hour with 10 μl NEDD8- or ubiquitin-agarose in buffer D (50 mM HEPES/KOH pH 7.5, 60 mM KOAc, 5 mM MgCl2, 5% glycerol, 0.1% Triton X-100)
T1 construct: ubiquitin coupled to agarose beads; source: bought: BostonBiochem (ubiquitin-agarose)

[1] = biological target: T2, CUL2/RBX1, unmodified (full-length CUL2, GST cleaved off) (human | , UniProt Q13617-1 1-745; P62877 1-108); experiment: co-IP; 1.5 μg CUL2/RBX1 (unmodified or neddylated in vitro) pre-incubated with 1.5 μg bacterially expressed Flag-UBXN7 for 30 minutes, then one hour with anti-Flag beads in buffer D
T2 construct: CUL2, human, full-length; RBX1, amplified from EST IMAGE 3138751; also called unmodified CUL2; non-neddylated CUL2; source: Spodoptera frugiperda 21 cells (baculovirus), purified (GSH-Sepharose, GST cleaved with PreScission protease)

[2] = biological target: T3, CUL2/RBX1, neddylated in vitro (partially neddylated full-length CUL2) (human | , UniProt Q13617-1 1-745; P62877 1-108; Q15843 1-76, NEDD8 conjugated in vitro on only a fraction of CUL2; Lys689 is the site of NEDD8-conjugation in human CUL2); experiment: as above
T3 construct: CUL2, human, full-length; RBX1, amplified from EST IMAGE 3138751; NEDD8 (BostonBiochem) conjugated to CUL2 in vitro; RBX1 substoichiometric; also called neddylated CUL2; CUL2 that was in vitro neddylated; copies: + +

[3] = biological target: T4, Flag-CUL1(324-776)/GST-HA-RBX1 complex, non-neddylated (mock neddylation) (UniProt Q13616 324-776; P62877 1-108); experiment: pull-down; Flag-CUL1(324-776)/GST-HA-RBX1 (about 1 μg) immobilized on GSH-sepharose, neddylated or mock-treated, incubated for one hour with 3 μg Flag-UBXN7 variant in buffer D; naked beads as control
T4 construct: RBX1; also called non-neddylated CUL1 fragment; CUL1/RBX1 complex; source: E. coli BL21, co-expressed, immobilized from lysate on GSH-sepharose

[4] = biological target: T5, Flag-CUL1(324-776)/GST-HA-RBX1 complex, neddylated in vitro (mixture of neddylated and non-neddylated) (UniProt Q13616 324-776; P62877 1-108; Q15843 1-76, NEDD8 conjugated in vitro (mixture of neddylated and non-neddylated); site not stated); experiment: as above
T5 construct: RBX1; NEDD8 (BostonBiochem) conjugated to the CUL1 fragment in vitro; also called neddylated CUL1 fragment; source: E. coli BL21, co-expressed, immobilized from lysate on GSH-sepharose, neddylated in vitro on the beads; copies: + +
T5 sequence (Q13616 324-776, chain 1 of 3): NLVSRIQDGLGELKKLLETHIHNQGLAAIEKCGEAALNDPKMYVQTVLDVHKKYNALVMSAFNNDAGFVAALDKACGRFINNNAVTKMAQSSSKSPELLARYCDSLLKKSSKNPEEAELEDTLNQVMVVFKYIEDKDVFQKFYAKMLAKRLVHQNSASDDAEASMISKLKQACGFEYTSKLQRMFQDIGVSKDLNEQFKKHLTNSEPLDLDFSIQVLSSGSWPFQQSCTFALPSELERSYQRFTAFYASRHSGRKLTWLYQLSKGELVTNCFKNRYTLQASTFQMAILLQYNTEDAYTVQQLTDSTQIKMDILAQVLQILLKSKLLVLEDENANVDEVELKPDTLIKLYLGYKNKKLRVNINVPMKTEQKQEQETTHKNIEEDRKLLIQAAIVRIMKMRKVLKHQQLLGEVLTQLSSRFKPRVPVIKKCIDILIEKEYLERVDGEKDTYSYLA
T5 sequence (P62877 whole entry, chain 2 of 3, the tested form may be a part): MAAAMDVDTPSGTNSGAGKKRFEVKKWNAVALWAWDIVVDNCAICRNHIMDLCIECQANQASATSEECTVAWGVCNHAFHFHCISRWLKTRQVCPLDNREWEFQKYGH
T5 sequence (Q15843 1-76, chain 3 of 3): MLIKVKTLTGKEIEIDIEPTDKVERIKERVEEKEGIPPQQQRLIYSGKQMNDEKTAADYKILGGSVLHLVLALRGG

T4 sequence (Q13616 324-776, chain 1 of 2): as the sequence (Q13616 324-776, chain 1 of 3) above
T4 sequence (P62877 whole entry, chain 2 of 2, the tested form may be a part): as the sequence (P62877 whole entry, chain 2 of 3, the tested form may be a part) above
T2 sequence (Q13617 whole entry, chain 1 of 2): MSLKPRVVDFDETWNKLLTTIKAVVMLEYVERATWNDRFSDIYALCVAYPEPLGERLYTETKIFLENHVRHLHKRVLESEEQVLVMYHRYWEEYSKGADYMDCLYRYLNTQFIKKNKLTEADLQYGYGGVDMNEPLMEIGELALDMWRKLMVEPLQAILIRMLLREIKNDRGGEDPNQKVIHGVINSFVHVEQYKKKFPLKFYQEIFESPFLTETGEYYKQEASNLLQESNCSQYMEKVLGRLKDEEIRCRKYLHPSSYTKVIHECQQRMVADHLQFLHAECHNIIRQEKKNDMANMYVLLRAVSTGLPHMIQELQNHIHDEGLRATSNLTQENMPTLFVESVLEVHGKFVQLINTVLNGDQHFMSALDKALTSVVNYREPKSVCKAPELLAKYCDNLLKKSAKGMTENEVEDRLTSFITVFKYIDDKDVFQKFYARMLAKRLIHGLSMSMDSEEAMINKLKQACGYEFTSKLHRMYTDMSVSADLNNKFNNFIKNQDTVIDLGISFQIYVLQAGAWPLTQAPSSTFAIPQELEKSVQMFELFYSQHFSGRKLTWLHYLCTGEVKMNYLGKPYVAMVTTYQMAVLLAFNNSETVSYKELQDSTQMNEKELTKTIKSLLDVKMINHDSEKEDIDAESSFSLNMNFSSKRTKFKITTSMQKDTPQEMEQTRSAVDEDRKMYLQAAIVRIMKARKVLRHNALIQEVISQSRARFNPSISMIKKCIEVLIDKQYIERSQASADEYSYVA
T2 sequence (P62877 whole entry, chain 2 of 2): as the sequence (P62877 whole entry, chain 2 of 3, the tested form may be a part) above
T3 sequence (Q13617 whole entry, chain 1 of 3): as the sequence (Q13617 whole entry, chain 1 of 2) above
T3 sequence (P62877 whole entry, chain 2 of 3): as the sequence (P62877 whole entry, chain 2 of 3, the tested form may be a part) above
T3 sequence (Q15843 1-76, chain 3 of 3): as the sequence (Q15843 1-76, chain 3 of 3) above

binding result (ubiquitin-agarose): binds
binding result [1]: binds
binding result [2]: binds
binding result [3]: binds
binding result [4]: binds
B1: bacterially expressed Flag-UBXN7 (wild-type, full length) (natural protein, human, UniProt O94888 1-489, looked up)
chain: MAAHGGSAASSALKGLIQQFTTITGASESVGKHMLEACNNNLEMAVTMFLDGGGIAEEPSTSSASVSTVRPHTEEEVRAPIPQKQEILVEPEPLFGAPKRRRPARSIFDGFRDFQTETIRQEQELRNGGAIDKKLTTLADLFRPPIDLMHKGSFETAKECGQMQNKWLMINIQNVQDFACQCLNRDVWSNEAVKNIIREHFIFWQVYHDSEEGQRYIQFYKLGDFPYVSILDPRTGQKLVEWHQLDVSSFLDQVTGFLGEHGQLDGLSSSPPKKCARSESLIDASEDSQLEAAIRASLQETHFDSTQTKQDSRSDEESESELFSGSEEFISVCGSDEEEEVENLAKSRKSPHKDLGHRKEENRRPLTEPPVRTDPGTATNHQGLPAVDSEILEMPPEKADGVVEGIDVNGPKAQLMLRYPDGKREQITLPEQAKLLALVKHVQSKGYPNERFELLTNFPRRKLSHLDYDITLQEAGLCPQETVFVQERN
notes: UBXN7, human, full length, in a modified pGEX6P-1 vector; also called wild-type UBXN7; recombinant UBXN7; source: E. coli BL21 DE3, purified (GSH-sepharose, TEV cleavage, Superdex 75)
